From paper PMC2660348

What was measured:
[1] = target: T1, IdeR (Mycobacterium smegmatis) (UniProt A0QVZ3); experiment: EMSA
T1 sequence: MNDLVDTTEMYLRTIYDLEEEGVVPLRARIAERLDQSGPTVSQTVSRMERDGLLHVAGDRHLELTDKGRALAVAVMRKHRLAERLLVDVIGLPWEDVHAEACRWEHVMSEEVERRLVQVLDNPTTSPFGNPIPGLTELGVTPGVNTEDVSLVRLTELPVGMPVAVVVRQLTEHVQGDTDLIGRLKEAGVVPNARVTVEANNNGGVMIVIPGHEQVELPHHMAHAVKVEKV

[2] = target: T2, Zur (FurB) (Mycobacterium smegmatis) (UniProt A0R0S1); experiment: EMSA
T2 sequence: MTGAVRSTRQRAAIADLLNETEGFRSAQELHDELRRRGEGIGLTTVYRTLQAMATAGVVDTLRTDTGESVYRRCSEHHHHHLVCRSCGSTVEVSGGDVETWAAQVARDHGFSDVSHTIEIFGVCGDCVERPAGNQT

CGGGATCCCGCAACACCCTGGTCAGTGCCGCCCGCGTCTGACGGCGCACCGTTCGCGCTGCCGGCACCCCGGGCTCCATAATGAAAATCATGTTCAGTAAGCTACACTCTGCATATCGGGCTACCAACGAAATGGAGTATCGGTCATGATCTTGCCAGCCGTGCCTAAAAGCTTGGCCGCAGGGCCGAGTCGATTGGTCGCGGTCGCCTCGACAGTTAGCTTATGCAATGCTAACTTCGGGGCAAAGTTCAGGCGGATCGGCCGATGGCGGGCGTAGGTGAAGGAGACAGCGGGTACCCG (double strand) [rv0282 upstream region (pr1)]
binding [1]: binds | binding [2]: binds
